Assay results from US6403087 (Biogen, dated 2002).

T1: soluble human LT-α1/β2 ligand (hLT-α1/β2) (human, UniProt P01374 35-205; Q06643 49-244, limits assumed)
T1 sequence (looked up) 1: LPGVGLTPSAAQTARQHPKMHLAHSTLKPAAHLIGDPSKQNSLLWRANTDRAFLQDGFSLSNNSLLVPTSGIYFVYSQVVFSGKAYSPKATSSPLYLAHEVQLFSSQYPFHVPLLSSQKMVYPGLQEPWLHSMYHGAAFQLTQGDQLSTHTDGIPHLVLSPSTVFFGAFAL
T1 sequence (looked up) 2: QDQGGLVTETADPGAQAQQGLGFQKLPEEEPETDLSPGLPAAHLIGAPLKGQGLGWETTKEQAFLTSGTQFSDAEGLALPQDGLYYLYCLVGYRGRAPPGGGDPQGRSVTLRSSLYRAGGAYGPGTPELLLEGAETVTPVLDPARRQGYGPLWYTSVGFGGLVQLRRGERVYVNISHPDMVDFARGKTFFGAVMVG

T2: hLT-α (human, UniProt P01374 35-205, limits assumed)
T2 sequence (looked up): T1 sequence (looked up) 1

B1: soluble TNF-R fusion protein (p55-TNF-R-Fc) (Fc fusion, UniProt P19438 30-211, looked up, not shown: a dimerising Fc or GST)
chain: LVPHLGDREKRDSVCPQGKYIHPQNNSICCTKCHKGTYLYNDCPGPGQDTDCRECESGSFTASENHLRHCLSCSKCRKEMGQVEISSCTVDRDTVCGCRKNQYRHYWSENLFQCFNCSLCLNGTVHLSCQEKQNTVCTCHAGFFLRENECVSCSNCKKSLECTKLCLPQIENVKGTEDSGTT
B2: soluble human LT-β receptor-immunoglobulin Fc fusion protein (hLT-β-R-Fc) (Fc fusion, not shown: a dimerising Fc or GST)
chain: QAVPPYASENQTCRDQEKEYYEPQHRICCSRCPPGTYVSAKCSRIRDTVCATCAENSYNEHWNYLTICQLCRPCDPVMGLEEIAPCTSKRKTQCRCQPGMFCAAWALECTHCELLSDCPPGTEAELKDEVGKGNNHCVPCKAGHFQNTSSPSARCQPHTRCENQGLVEAAPGTAQSDTTCKNPLEPLPPEMSGT

Tests used:
Assay in all cases: cell-based or functional assay
[1] = biological target: T1, soluble human LT-α1/β2 ligand …
hLT-α = biological target: T2, hLT-α
hTNF = hTNF (human, UniProt P01375 77-233)
hTNF, sequence (P01375 77-233 limits assumed): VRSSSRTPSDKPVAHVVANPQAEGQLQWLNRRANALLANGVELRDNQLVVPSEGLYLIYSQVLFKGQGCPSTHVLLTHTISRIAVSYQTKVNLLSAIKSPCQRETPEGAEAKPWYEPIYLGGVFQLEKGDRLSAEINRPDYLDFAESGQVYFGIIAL

| Binder | Concentration of Cytotoxic Agent (ng/ml) Resulting in 50% Growth Inhibition of HT29 cells, in the presence of 5 µg/ml p55-TNF-R-Fc [1] | Concentration of Cytotoxic Agent (ng/ml) Resulting in 50% Growth Inhibition of HT29 cells, in the presence of 5 µg/ml p55-TNF-R-Fc (hLT-α) | Concentration of Cytotoxic Agent (ng/ml) Resulting in 50% Growth Inhibition of HT29 cells, in the presence of 5 µg/ml LT-β-R-Fc [1] | Concentration of Cytotoxic Agent (ng/ml) Resulting in 50% Growth Inhibition of HT29 cells, in the presence of 5 µg/ml LT-β-R-Fc (hTNF) | Concentration of Cytotoxic Agent (ng/ml) Resulting in 50% Growth Inhibition of HT29 cells, in the presence of 5 µg/ml LT-β-R-Fc (hLT-α) |
| --- | --- | --- | --- | --- | --- |
| B1 | 5 ng/mL | > 1000 ng/mL |  |  |  |
| B2 |  |  | > 200 ng/mL | 0.08 ng/mL | 3 ng/mL |
